From paper PMC10127746, “Genetic Dissection of Budding Yeast PCNA Mutations Responsible for the Regulated Recruitment of Srs2 Helicase” (mBio, 2023)
Residue numbers refer to the chain shown, from its start.

Columns and labels:
Assay in all cases: pull-down; GST pulldown; equal molars of GST-Srs2-CT or GST-Rad30-PIP and His6-Pol30 coincubated overnight at 4°C; Western blot with anti-His6 and anti-GST
Details in all cases: both partners purified
His6-tagged Pol30-I128A = target: T1, His6-tagged Pol30-I128A (S. cerevisiae, UniProt P15873 1-258, I128A)
T1 construct: Pol30 (PCNA), S. cerevisiae, POL30 ORF in pET30a, mutant derivative; source: E. coli BL21, purified (Ni Sepharose)
T1 sequence (looked up): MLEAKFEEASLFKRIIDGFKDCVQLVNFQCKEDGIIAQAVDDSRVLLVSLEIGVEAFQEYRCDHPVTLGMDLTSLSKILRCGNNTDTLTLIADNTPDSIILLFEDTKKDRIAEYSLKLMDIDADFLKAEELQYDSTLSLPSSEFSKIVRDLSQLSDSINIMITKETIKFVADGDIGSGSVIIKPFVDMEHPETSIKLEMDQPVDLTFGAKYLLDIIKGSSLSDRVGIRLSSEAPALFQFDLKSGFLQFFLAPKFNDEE

His6-tagged Pol30-A171D = target: T2, His6-tagged Pol30-A171D (S. cerevisiae, UniProt P15873 1-258, A171D)
T2 construct: Pol30 (PCNA), S. cerevisiae, POL30 ORF in pET30a, mutant derivative; The methods describe only the wild-type pET-Pol30; source: E. coli BL21, purified (Ni Sepharose)
T2 sequence (looked up): T1 sequence (looked up) with A128I, A171D

His6-tagged Pol30-K164R = target: T3, His6-tagged Pol30-K164R (S. cerevisiae, UniProt P15873 1-258, K164R)
T3 construct: Pol30 (PCNA), S. cerevisiae, POL30 ORF in pET30a, mutant derivative; The methods describe only the wild-type pET-Pol30; source: E. coli BL21, purified (Ni Sepharose)
T3 sequence (looked up): T1 sequence (looked up) with A128I, K164R

His6-tagged Pol30 = target: T4, His6-tagged Pol30 (S. cerevisiae, UniProt P15873 1-258)
T4 construct: Pol30 (PCNA), S. cerevisiae, POL30 ORF cloned into BamHI-SacI sites of pET30a; also called His6-Pol30; PCNA; source: E. coli BL21, purified (Ni Sepharose)
T4 sequence (looked up): T1 sequence (looked up) with A128I

Measured: binding result

B1: GST-tagged Rad30-PIP (domain or fragment, S. cerevisiae, UniProt Q04049 515-632, looked up)
chain: VVDMFGNQVHTFKSSAGKEDEEKTTSSKADEKTPKLECCKYQVTFTDQKALQEHADYHLALKLSEGLNGAEESSKNLSFGEKRLLFSRKRPNSQHTATPQKKQVTSSKNILSFFTRKK
notes: Rad30 (DNA polymerase eta), S. cerevisiae, residues 515 to 632, cloned into BamHI-EcoRI sites of pGEX6; also called GST-Rad30-PIP; Rad30-PIP domain; source: E. coli BL21, purified (glutathione Sepharose)
binds: His6-tagged Pol30-I128A | His6-tagged Pol30-A171D | His6-tagged Pol30-K164R | His6-tagged Pol30

B2: GST-tagged Srs2 C-terminal domain (Srs2-CT) (domain or fragment, S. cerevisiae, UniProt P12954 1107-1174, looked up)
chain: HNPDDTTVDNRPIISNAKFLADAAMKKTQKFSKKVKNEPASSQMDIFSQLSRAKKKSKLNNGEIIVID
notes: Srs2 DNA helicase, S. cerevisiae, residues 1107 to 1174, cloned into BamHI-EcoRI sites of pGEX6; Holds the atypical PIP box and the SIM; also called GST-Srs2-CT; Srs2 C terminus; source: E. coli BL21, purified (glutathione Sepharose)
binds: His6-tagged Pol30-I128A | His6-tagged Pol30-K164R | His6-tagged Pol30
